{"source": "paper PMC8660799", "about": "“Cryo-EM reveals unique structural features of the FhuCDB Escherichia coli ferrichrome importer” (Communications Biology, 2021)", "binders": {"B1": {"name": "FhuD (natural protein, Escherichia coli)", "chain": "AAIDPNRIVALEWLPVELLLALGIVPYGVADTINYRLWVSEPPLPDSVIDVGLRTEPNLELLTEMKPSFMVWSAGYGPSPEMLARIAPGRGFNFSDGKQPLAMARKSLTEMADLLNLQSAAETHLAQYEDFIRSMKPRFVKRGARPLLLTTLIDPRHMLVFGPNSLFQEILDEYGIPNAWQGETNFWGSTAVSIDRLAAYKDVDVLCFDHDNSKDMDALMATPLWQAMPFVRAGRFQRVPAVWFYGATLSAMHFVRVLDNAIGGKA", "notes": "In 'FhuD-ferrichrome' the protein was loaded with the small molecule ferrichrome; also called FhuD-ferrichrome (when loaded with ferrichrome)"}}, "experiment_in_all_cases": "MST; 40 nM FhuCB (wild type or FhuB mutant) in detergent, His-tag labelled with red-tris-NTA 2nd generation dye; serial dilution of 1.6 μM FhuD with substrate ferrichrome; with ATP-Mg; Monolith NT.115pico, 20% LED power, medium MST power", "conditions_in_all_cases": "both partners purified", "key": {"FhuCB with FhuB S57A": {"molecular_target": "T1, FhuCB with FhuB S57A (Escherichia coli, UniProt P07821 1-265; P06972 1-660, S57A, red-tris-NTA 2nd generation dye on the His-tag)", "T1 construct": "FhuC, ATPase subunit, Escherichia coli; as in Dm2; FhuB, membrane subunit, Escherichia coli, 660 residues; Mutant made on the FhuCB-pET15b construct by direct mutagenesis; source: E. coli BL21(DE3) C43, purified (TALON, Superose 6 gel filtration) in LMNG; not shown: His-tag, N-terminal, kept; copies: 2 + 1", "T1 sequence (looked up) 1": "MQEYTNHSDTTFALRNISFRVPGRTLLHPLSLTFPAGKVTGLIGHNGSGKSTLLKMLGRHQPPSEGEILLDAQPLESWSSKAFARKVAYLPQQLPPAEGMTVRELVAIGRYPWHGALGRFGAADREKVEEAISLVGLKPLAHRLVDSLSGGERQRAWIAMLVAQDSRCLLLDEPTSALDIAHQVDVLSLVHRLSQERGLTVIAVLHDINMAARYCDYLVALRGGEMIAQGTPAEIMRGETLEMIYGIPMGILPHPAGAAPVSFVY", "T1 sequence (looked up) 2": "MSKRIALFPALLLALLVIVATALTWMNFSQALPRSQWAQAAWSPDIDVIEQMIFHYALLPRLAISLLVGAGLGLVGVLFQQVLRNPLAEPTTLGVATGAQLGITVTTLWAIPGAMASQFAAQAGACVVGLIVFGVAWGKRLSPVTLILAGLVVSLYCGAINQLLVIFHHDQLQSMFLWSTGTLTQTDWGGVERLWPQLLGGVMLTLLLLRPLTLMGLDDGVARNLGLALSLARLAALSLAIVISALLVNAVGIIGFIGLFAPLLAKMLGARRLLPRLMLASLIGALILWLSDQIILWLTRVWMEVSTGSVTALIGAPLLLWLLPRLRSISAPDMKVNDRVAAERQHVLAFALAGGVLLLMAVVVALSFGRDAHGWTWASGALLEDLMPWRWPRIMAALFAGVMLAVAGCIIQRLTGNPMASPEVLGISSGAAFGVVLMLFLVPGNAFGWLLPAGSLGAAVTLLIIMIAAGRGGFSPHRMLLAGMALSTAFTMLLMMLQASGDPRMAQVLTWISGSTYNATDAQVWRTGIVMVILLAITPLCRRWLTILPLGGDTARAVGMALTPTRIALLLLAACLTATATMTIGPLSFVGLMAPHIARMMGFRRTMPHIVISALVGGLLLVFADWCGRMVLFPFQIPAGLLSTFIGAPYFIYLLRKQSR"}, "FhuCB with FhuB R390A": {"molecular_target": "T2, FhuCB with FhuB R390A (Escherichia coli, UniProt P07821 1-265; P06972 1-660, R390A, red-tris-NTA 2nd generation dye on the His-tag)", "T2 construct": "FhuC, ATPase subunit, Escherichia coli; as in Dm2; FhuB, membrane subunit, Escherichia coli, 660 residues; Mutant made on the FhuCB-pET15b construct by direct mutagenesis; source: E. coli BL21(DE3) C43, purified (TALON, Superose 6 gel filtration) in LMNG; not shown: His-tag, N-terminal, kept; copies: 2 + 1", "T2 sequence (looked up) 1": "T1 sequence (looked up) 1", "T2 sequence (looked up) 2": "T1 sequence (looked up) 2 with A57S, R390A"}, "FhuCB with FhuB Q636A": {"molecular_target": "T3, FhuCB with FhuB Q636A (Escherichia coli, UniProt P07821 1-265; P06972 1-660, Q636A, red-tris-NTA 2nd generation dye on the His-tag)", "T3 construct": "FhuC, ATPase subunit, Escherichia coli; as in Dm2; FhuB, membrane subunit, Escherichia coli, 660 residues; Mutant made on the FhuCB-pET15b construct by direct mutagenesis; source: E. coli BL21(DE3) C43, purified (TALON, Superose 6 gel filtration) in LMNG; not shown: His-tag, N-terminal, kept; copies: 2 + 1", "T3 sequence (looked up) 1": "T1 sequence (looked up) 1", "T3 sequence (looked up) 2": "T1 sequence (looked up) 2 with A57S, Q636A"}}, "note": "Positions count from the first letter of the chain named.", "data": [{"binder": "B1", "values": [{"measurement": "Kd", "setting": "FhuCB with FhuB S57A", "result": 88.4, "unit": "nM"}, {"measurement": "Kd", "setting": "FhuCB with FhuB R390A", "result": 75.8, "unit": "nM"}, {"measurement": "Kd", "setting": "FhuCB with FhuB Q636A", "result": 90.2, "unit": "nM"}]}]}
